According to the Human Domainome abundance scans (Beltran et al. 2025):

B1: Heterogeneous nuclear ribonucleoprotein U-like protein 2, residues 1 to 40; numbered along this chain, Q1KMD3 (parent)
chain: MEVKRLKVTELRSELQRRGLDSRGLKVDLAQRLQEALDAE

Variants of: B1
Assay: abundance fitness (aPCA) (normalised: wild type 0, dead -1); higher = more abundant; growth selection in yeast, the domain comes from the species named
Details: Homo sapiens

Abundance fitness of substitutions, site by site:
A39: K -0.046; H -0.026; I -0.497; D -0.185; F -0.159; G -0.036; N 0.153; S -0.06; R 0.017; P -0.272; L -0.118; Q 0.005
K26: D -0.019; Y -0.103; I -0.117; T -0.154; F -0.361; M -0.048; S -0.189; P -0.002; G -0.178; W -0.146; R -0.074; L -0.179; Q 0.008; V -0.149; A -0.066; E 0.107
D28: A -0.09; G -0.513; S -0.407; I -0.326; Y -0.715; N -0.248; R -0.342; K -0.129; M -0.382; H -0.19; P -0.681; V -0.119; W -1.35; L -0.497; Q -0.139; E 0.086; F -0.896
G24: S -0.703; M -0.81; A -0.832; R -1.03; V -0.855; Y -1.1; Q -0.612; P -0.578; W -1.47; L -0.984; T -0.837; C -0.773; K -0.945
A36: R -0.213; K -0.354; T -0.196; D -0.371; C -0.048; W -0.422; N -0.294; M -0.397; V -0.104; E -0.213; S -0.138; L -0.622; P -0.407; I -0.314; F -0.278; Q -0.211; G -0.366; Y -0.231
S22: G -0.052; M -0.064; P 0.12; T 0.142; H 0.08; K -0.333; E -0.02; R -0.402; Q 0; A 0.063; C -0.08; F 0.176; W -0.011; L -0.153; V 0.079
D38: Y -0.243; R -0.217; W -0.36; A -0.198; G -0.281; I -0.629; H -0.531; F -0.33; P -0.402; T -0.027; M -0.169; Q -0.244; K -0.185; S -0.19; N 0.113; V -0.231; C -0.157; E -0.013; L -0.284
R32: V -0.643; I -1.08; L -0.854; A -0.394; H -0.399; Q -0.262; N -0.395; S -0.371; F -1.02; E -0.221; T -0.405; Y -0.191; W -1; G -0.339; M -0.567; C -0.441; P -0.402; D -0.076
Q31: V -0.003; E 0.141; C -0.016; S 0.058; P -0.121; I 0.012; T 0.085; N 0.252; W -0.176; H -0.418; G -0.055; M -0.041; L 0.009; F -0.197; A 0.032; K 0.112
R23: K 0.082; G 0.091; N 0.127; E 0.166; V -0.019; A 0.158; S 0.167; W -0.185; C 0.062; M -0.232; P -0.6; H 0.092; L -0.057; Y 0.041; Q 0.114; T 0.225; F -0.137; D 0.136
L20: Q -0.364; F -0.353; H -0.572; I -0.151; V -0.358; N -0.77; E -0.383; Y -0.462; M -0.033; W -0.624; T -0.563; S -0.496; C -0.265; P -0.65; R -0.558; A -0.352; D -0.304; G -0.51
G19: V -0.789; P -0.555; R -0.444; I -1.12; L -0.64; H -0.196; M -0.676; Q -0.178; Y -1.04; K -0.545; T -0.521; S -0.276
L37: Q -0.113; T -0.179; V -0.078; F -0.112; P -0.282; S -0.346; H -0.032; A -0.337; W -0.266; K -0.199; N -0.381; I 0.223; M 0.001; D -0.24; R -0.223; C -0.276; E -0.157; G -0.319
L25: V 0.066; T 0.155; D 0.151; Q 0.046; H 0.105; E 0.257; G 0.095; M -0.096; I -0.095; A 0.189; C 0.019; S 0.118; W -0.248; Y -0.025
Q34: D -0.256; I -0.432; K -0.18; F -0.722; A -0.205; T -0.145; R -0.308; S -0.171; V -0.413; L -0.415; Y -0.515; G -0.236; P -0.396; N -0.119; E -0.099; M -0.283; W -0.624; C -0.43
A30: F -0.217; D -0.217; R 0.046; V 0.011; T -0.058; P -0.718; W -0.236; N -0.422; G -0.361; C -0.006; Q 0.106; S -0.165; L -0.21
D21: L -0.557; M -0.453; H -0.422; C -0.068; I -0.871; Y -0.204; T -0.217; R -0.645; F -0.591; A -0.41; W -0.74; K -0.428; G -0.572
V27: D 0.037; L -0.087; Q -0.246; R 0.049; C 0.09; E 0.038; T -0.063; G -0.014; M 0.002; S 0.086; K 0.087; Y -0.413; W -0.339; H -0.009; P 0.142; I -0.047; N 0.049
L29: Q -0.285; R -0.356; S -0.201; N -0.352; K -0.31; T -0.083; C -0.137; Y -0.486; D -0.104; A -0.212; W -0.853; G -0.188; E -0.174; P -0.299; I -0.189; H -0.346; F -0.603
L33: K -0.164; W -0.626; E -0.085; S -0.243; P -0.06; R -0.368; M -0.239; I -0.843; Q -0.269; G -0.189; C -0.403; D -0.239; T -0.349; N -0.384; H -0.467; F -0.733
E35: R -0.047; Y -0.294; M 0.009; P -0.339; N -0.036; I -0.167; H -0.055; G -0.068; C -0.052; S -0.018; T 0.005; K 0.058; D 0.036; F -0.21; L -0.168; V -0.045
